Test results from US20230257791A1.

Target: recombinant gp140 from the clade C strain 92BR025 (HIV antigen), Sino Biological, Inc. (HIV, clade C strain 92BR025)
Assay: SPR, Biacore T200; gp140 immobilized, GRFT as analyte at 12.5-400 nM; heterogeneous ligand model; mean ± SD of replicates

Chain of recombinant gp140 from the clade C strain 92BR025 (HIV antigen), Sino Biological, Inc. (HIV, clade C strain 92BR025) (O12164 32-677): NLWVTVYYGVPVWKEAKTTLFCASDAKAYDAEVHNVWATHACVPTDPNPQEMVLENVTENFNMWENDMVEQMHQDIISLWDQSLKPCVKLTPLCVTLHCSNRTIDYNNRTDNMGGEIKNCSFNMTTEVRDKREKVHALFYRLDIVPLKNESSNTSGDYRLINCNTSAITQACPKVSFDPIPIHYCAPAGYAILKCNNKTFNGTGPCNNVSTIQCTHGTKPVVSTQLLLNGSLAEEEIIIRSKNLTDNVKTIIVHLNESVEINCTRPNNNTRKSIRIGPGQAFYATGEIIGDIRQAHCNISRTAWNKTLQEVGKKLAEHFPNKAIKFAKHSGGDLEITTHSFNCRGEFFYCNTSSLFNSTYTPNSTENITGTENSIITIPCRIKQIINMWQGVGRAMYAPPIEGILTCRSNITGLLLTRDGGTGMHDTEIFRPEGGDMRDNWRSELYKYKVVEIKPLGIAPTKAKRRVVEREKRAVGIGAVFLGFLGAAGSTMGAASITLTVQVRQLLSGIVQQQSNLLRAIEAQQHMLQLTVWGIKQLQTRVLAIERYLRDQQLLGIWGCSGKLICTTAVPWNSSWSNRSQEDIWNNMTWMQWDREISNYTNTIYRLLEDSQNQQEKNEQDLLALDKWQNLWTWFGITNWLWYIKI

With “precipitation-purified Griffithsin (GRFT), recombinant, expressed in E. coli strain DLF_0025 from plasmid pHC-Kan-phoAp-GRFT (from UniProt P84801 1-121)” as the substance, how does the Kd read?
The Kd was 4.4 nM.
